# According to patent publication US20100041597A1 (published 2010):
# T1: PKC-ι (endogenous, human cell extracts) (human, UniProt P41743 2-596)
# T1 construct: also called PKC-iota
# T1 sequence (looked up): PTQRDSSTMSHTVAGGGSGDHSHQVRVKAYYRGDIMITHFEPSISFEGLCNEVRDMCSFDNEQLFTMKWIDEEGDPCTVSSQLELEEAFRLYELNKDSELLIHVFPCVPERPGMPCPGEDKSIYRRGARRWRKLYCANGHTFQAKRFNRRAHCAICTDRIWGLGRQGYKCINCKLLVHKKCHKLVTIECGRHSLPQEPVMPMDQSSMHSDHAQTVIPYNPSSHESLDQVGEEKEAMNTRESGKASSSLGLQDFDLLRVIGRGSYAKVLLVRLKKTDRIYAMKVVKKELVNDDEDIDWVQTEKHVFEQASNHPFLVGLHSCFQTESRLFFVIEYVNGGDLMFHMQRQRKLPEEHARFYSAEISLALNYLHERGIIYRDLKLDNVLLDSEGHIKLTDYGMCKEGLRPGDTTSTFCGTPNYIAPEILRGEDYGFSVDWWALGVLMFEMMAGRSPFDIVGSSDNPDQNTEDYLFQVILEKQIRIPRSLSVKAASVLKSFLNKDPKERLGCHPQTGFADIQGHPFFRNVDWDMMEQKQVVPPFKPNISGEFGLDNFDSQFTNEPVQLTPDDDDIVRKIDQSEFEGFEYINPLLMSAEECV
# T2: PKC-ε (purified isoform) (Homo sapiens (Human), UniProt Q02156 1-737)
# T2 construct: also called PKC-epsilon; PKCepsilon
# T2 sequence: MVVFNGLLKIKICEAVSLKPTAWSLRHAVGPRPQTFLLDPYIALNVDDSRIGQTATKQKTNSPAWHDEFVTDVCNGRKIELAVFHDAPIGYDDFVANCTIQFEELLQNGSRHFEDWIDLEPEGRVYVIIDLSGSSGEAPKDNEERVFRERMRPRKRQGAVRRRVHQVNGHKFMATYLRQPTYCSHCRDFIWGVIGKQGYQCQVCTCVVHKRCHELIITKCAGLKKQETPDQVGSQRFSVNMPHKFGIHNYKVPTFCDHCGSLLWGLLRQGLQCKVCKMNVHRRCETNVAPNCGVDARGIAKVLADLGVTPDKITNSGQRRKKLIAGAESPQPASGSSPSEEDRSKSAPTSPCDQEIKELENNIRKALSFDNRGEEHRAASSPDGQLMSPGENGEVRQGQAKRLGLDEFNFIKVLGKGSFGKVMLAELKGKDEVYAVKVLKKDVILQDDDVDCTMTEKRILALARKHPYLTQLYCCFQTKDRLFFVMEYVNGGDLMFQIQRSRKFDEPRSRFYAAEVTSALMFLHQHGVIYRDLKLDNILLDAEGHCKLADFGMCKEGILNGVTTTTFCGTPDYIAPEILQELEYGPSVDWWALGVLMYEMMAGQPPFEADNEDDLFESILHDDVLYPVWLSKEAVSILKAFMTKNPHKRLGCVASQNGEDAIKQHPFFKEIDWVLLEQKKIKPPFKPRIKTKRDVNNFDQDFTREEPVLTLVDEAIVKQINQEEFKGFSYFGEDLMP
# How the values were obtained:
# [1] = molecular target: T3, PKC-βII (purified isoform) (Homo sapiens (Human), UniProt P05771 2-621); experiment: competitive ELISA on purified PKC-βII vs anti-PKC-βII Ab; PRE 200 µM
# T3 construct: also called PKC-beta II
# T3 sequence (P05771 other isoform, or with tags, fused parts or gaps limits assumed): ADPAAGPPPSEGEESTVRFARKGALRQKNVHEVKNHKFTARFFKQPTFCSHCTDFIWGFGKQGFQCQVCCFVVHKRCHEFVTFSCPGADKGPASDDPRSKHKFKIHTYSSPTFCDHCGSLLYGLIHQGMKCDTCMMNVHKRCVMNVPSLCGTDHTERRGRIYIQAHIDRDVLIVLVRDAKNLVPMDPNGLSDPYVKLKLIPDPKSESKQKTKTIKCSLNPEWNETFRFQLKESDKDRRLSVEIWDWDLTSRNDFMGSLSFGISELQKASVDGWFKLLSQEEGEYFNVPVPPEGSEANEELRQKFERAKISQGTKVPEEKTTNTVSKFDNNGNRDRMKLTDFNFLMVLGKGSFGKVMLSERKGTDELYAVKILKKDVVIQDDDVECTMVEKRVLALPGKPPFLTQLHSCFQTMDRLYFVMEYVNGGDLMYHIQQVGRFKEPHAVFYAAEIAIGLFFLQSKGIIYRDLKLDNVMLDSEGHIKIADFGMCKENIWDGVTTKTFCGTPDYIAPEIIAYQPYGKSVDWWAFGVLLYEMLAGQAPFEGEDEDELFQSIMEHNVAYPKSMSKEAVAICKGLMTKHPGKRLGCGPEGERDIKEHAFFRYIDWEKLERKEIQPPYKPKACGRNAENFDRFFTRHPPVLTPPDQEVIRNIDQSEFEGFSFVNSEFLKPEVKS
# Protocol: (§1) Greiner 96 well ELISA plates were coated with the appropriate PKC isoform diluted in PBSN (PBS with Calcium/Magnesium+0.05% Sodium azide w/w). 50 μL/well at 250 ng/mL was used. Control wells contained PBSN only. Plates were incubated overnight at 4° C.
# (§2) The plates were washed 3 times with 200 μL of dH₂O per well, then 100 μL of blocking solution was added per well and the plate incubated for 1 h at 37° C. The washing steps with dH₂O were repeated and 50 μL of the appropriate PRE solution (PRE stock solution [20 mM in DMSO] diluted in PBSN) was added and the plate incubated for 1 h at room temperature.
# (§3) 50 μL of 1:1000 dilution of Alkaline Phosphatase (AP) conjugated antibody (anti-rabbit for all except zeta, which was anti-goat) was then added and the plate incubated for 1 h at room temperature. Washing with dH₂O was then repeated. Finally, 100 μL of pNPP solution in pNPP buffer (2 mM MgCl₂, 100 mM Sodium bicarbonate in water, pH 9.8) was added to all wells and incubated for 8 minutes for α, βI, βII ε, and ζ, or for 15-20 mins for […] (until sufficient coloration is observed). The reaction was stopped by addition of Stop solution (2N NaOH) and the absorbance at 405 nm was read on a Galaxy Plate reader.
# [2] = molecular target: T3, PKC-βII (purified isoform); experiment: competitive ELISA on purified PKC-βII vs anti-PKC-βII Ab; PRE 50 µM
# Protocol: as §1, §2, §3
# [3] = molecular target: T1, PKC-ι (endogenous, human cell extracts); experiment: Western-blot competition on cell extracts against the anti-PKC-ι primary antibody; band densitometry
# Protocol: Binding efficiency and specificity of the peptides PRE 2, 3, 4, 5, 6, 7, 8, 9, 10, 11, 12 and 13 (see Table 3) was also tested using cytoplasmic extracts from different cell lines expressing appropriate PKC isoforms as described for Example 1. Briefly, the protein cytoplasmic extracts were separated by electrophoresis and transferred onto nitrocellulose membranes by standard Western blotting procedures. The bands on the Western blots were detected with matching primary antibodies and alkaline phosphatase conjugated secondary antibody. The bands were then scanned and the relative density measurements obtained.
# This procedure to assess the binding characteristics of the PREs is based on competition binding of the PRE with the primary anti-isoform PKC specific antibodies. The lower the measured band density, the greater the binding of the PRE to the PKC isoform. The PREs were added at 10 and 20 times (10×, 20×) the primary antibody concentration, according to classical competition between antigenic peptide and primary antibody. The following cell lines (obtained from the ATCC) were used: H661—NCI human lung carcinoma NSCLC; MDAMB231—human highly invasive breast cancer cell line from pleural effusion; LS180—human colon adenocarcinoma; LnCAP—human prostate adenocarcinoma; CCD16Lu—human lung fibroblasts; Du145—human prostate carcinoma brain metastasis, and T24—human bladder carcinoma.
# [4] = molecular target: T2, PKC-ε (purified isoform); experiment: competitive ELISA on purified PKC-ε vs anti-PKC-ε Ab; PRE 200 µM
# Protocol: as §1, §2, §3
Binder,binding capacity (%) [1] [%],binding capacity (%) [2] [%],binding result [3],binding capacity (%) [4] [%]
Ac-KDANQLIGISI-NH2 (Synthetic peptide; also called peptide PRE 6) [PRE 6],0,0.08,no binding (tested: 20X the primary antibody concentration),
Ac-AKGIQEVKGGDAQNLIGISI-NH2 (Synthetic peptide; also called peptide PRE 3) [PRE 3],,,,31
Ac-KDAQNLI-NH2 (Synthetic peptide; also called peptide PRE 12; Ac-KDAQNLI-NH2) [PRE 12],,,,0
Ac-RDAQNLI-NH2 (Synthetic peptide; also called peptide PRE 13; Ac-RDAQNLI-NH2) [PRE 13],0,0,no binding (tested: 20X the primary antibody concentration),0.85
Ac-KDAQNLIGISI-NH2 (Synthetic peptide; also called peptide PRE 4) [PRE 4],1.18,2.69,,
Ac-RDAQNLIGISI-NH2 (Synthetic peptide; also called peptide PRE 11) [PRE 11],,,,9.84
Ac-ISIGILQNADK-NH2 (Synthetic peptide (retro form of PRE 4); also called peptide PRE 7) [PRE 7],,,no binding (tested: 20X the primary antibody concentration),3.78
